In FireProtDB (doi:10.1002/prot.340220405):

Conditions: Escherichia coli (strain K12); pH 8; 25 °C; Urea; CD; Na-PIPES 50 mM; reversible: yes; whole UniProt chain shown

B1: Chemotaxis protein CheY wild type, P0AE67 (protein)
chain: MADKELKFLVVDDFSTMRRIVRNLLKELGFNNVEEAEDGVDALNKLQAGGYGFVISDWNMPNMDGLELLKTIRADGAMSALPVLMVTAEAKKENIIAAAQAGASGYVVKPFTAATLEEKLNKIFEKLGM
denaturant m value: 1.6 kcal/mol/M
denaturant midpoint (higher = more stable): 3.5 M
unfolding free energy: 5.6 kcal/mol
